Consider one molecule from paper PMC10985467 (Molecular Cancer Therapeutics, 2024).

The target in the assay is CD22 on human lymphoma and leukemia cell lines (Homo sapiens (Human)., UniProt P20273). The experiment in a line: cell-based or functional assay.
Sequence of CD22 on human lymphoma and leukemia cell lines (P20273 20-847): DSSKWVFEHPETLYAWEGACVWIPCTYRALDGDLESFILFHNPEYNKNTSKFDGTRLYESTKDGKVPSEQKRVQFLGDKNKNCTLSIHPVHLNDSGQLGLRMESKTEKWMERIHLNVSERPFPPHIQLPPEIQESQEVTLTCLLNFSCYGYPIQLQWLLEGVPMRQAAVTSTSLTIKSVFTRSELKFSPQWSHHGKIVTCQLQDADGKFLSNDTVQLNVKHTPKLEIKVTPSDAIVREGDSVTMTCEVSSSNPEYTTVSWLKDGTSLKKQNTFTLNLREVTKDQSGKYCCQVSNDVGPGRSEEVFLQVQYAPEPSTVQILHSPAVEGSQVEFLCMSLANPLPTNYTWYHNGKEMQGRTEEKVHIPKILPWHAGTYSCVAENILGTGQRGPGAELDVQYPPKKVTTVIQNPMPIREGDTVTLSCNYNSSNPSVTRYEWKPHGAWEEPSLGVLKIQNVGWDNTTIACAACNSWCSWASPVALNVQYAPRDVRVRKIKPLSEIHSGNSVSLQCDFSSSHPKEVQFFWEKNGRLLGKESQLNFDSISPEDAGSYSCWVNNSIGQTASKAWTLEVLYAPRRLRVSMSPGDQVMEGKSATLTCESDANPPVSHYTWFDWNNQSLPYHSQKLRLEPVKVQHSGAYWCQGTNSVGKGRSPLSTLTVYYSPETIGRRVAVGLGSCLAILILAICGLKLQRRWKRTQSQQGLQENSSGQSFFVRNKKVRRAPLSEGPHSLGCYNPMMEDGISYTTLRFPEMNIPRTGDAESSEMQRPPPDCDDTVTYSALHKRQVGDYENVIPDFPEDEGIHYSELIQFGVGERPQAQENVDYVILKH

B1: ADCT-602 (hLL2-C220 site-specifically conjugated to the PBD dimer payload tesirine, SG3249) (antibody, V domains shown)
VH: QVQLVQSGAEVKKPGSSVKVSCKASGYTFTSYWLHWVRQAPGQGLEWIGYINPRNDYTEYNQNFKDKATITADESTNTAYMELSSLRSEDTAFYFCARRDITTFYWGQGTLVTVSS
VL: DIQLTQSPSSLSASVGDRVTMSCKSSQSVLYSANHKNYLAWYQQKPGKAPKLLIYWASTRESGVPSRFSGSGSGTDFTFTISSLQPEDIATYYCHQYLSSWTFGQGTKVEIK
Regarding B1, the “IC50 of in vitro cytotoxicity (MTS, 96 hours), DO HH-2 cells” value is 0.06 nM; the “IC50 of in vitro cytotoxicity (MTS, 96 hours), Daudi cells” value was found to be 0.07 nM; the “IC50 of in vitro cytotoxicity (MTS, 96 hours), GRANTA-519 cells” value was found to be 0.02 nM; the “IC50 of in vitro cytotoxicity (MTS, 96 hours), MEC-2 cells” value is 0.18 nM. In addition, the “IC50 of in vitro cytotoxicity (MTS, 96 hours), NALM-6 cells” value is 0.11 nM; the “IC50 of in vitro cytotoxicity (MTS, 96 hours), NAMALWA cells” value was found to be 2.27 nM; the “IC50 of in vitro cytotoxicity (MTS, 96 hours), REH cells” value was found to be 0.05 nM; the “IC50 of in vitro cytotoxicity (MTS, 96 hours), Ramos cells” value worked out at 0.06 nM.
